{
  "source": "paper PMC4786784",
  "about": "(Nature Communications, 2016)",
  "binders": {"B1": {"name": "AdML Py tract 13mer (ssRNA)", "RNA": "CCCUUUUUUUUCC"}, "B2": {"name": "5'-4rU (ssRNA)", "RNA": "CCUUUUCCCCCCC"}, "B3": {"name": "3'-4rU (ssRNA)", "RNA": "CCCCCCCUUUUCC"}, "B4": {"name": "AdML Py tract rArA mutant (ssRNA)", "RNA": "CUUUUUAAUUUCC"}, "B5": {"name": "U2AF^35-UHM (U2AF homology motif; residues 43–146) (domain or fragment, UniProt Q01081-1 43-146, looked up)", "chain": "SQTIALLNIYRNPQNSSQSADGLRCAVSDVEMQEHYDEFFEEVFTEMEEKYGEVEEMNVCDNLGDHLVGNVYVKFRREEDAEKAVIDLNNRWFNGQPIHAELSP", "notes": "also called heterodimerization domain of the U2AF^35 subunit; U2AF1; source: expressed as a GST fusion protein, purified (GST cleavage, Q-HiTrap ion exchange)"}, "B6": {"name": "AdML Py tract 12mer (ssRNA)", "RNA": "CCUUUUUUUUCC"}, "B7": {"name": "rArA-interrupted Py tract (ssRNA)", "RNA": "CUUUUUAAUUUCCA"}},
  "key": {"U2AF65 1,2L 3Gly": {"target": "U2AF65 1,2L 3Gly (human, UniProt P26368 141-342, V249G;V250G;V254G)", "sequence (P26368 141-342 V249G/V250G/V254G, one chain of several)": "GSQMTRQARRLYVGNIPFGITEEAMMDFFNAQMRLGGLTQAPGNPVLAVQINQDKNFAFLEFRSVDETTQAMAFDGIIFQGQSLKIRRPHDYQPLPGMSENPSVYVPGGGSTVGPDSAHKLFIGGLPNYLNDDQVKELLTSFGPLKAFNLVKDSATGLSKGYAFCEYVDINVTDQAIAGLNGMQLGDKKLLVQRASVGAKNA", "assay": "fluorescence anisotropy; Anisotropy: 100 mM NaCl, 15 mM HEPES pH 6.8, 0.2 mM TCEP, 0.1 U/ul Superase-In, 30 nM RNA, 23 C; smFRET: 50 mM HEPES pH 7.4, 100 mM NaCl, room temperature"}, "dU2AF65 1,2L": {"target": "dU2AF65 1,2L (human, UniProt P26368 141-342, del238-257)", "sequence (P26368 other isoform, or with tags, fused parts or gaps del238-257)": "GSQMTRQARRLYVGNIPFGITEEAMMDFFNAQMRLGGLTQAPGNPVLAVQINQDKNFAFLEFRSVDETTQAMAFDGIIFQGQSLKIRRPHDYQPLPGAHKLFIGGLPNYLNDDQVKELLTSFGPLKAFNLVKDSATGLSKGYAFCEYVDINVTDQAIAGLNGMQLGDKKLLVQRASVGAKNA", "assay": "fluorescence anisotropy; Anisotropy: 100 mM NaCl, 15 mM HEPES pH 6.8, 0.2 mM TCEP, 0.1 U/ul Superase-In, 30 nM RNA, 23 C; smFRET: 50 mM HEPES pH 7.4, 100 mM NaCl, room temperature"}, "U2AF65 1,2L 5Gly": {"target": "U2AF65 1,2L 5Gly (human, UniProt P26368 141-342, S251G;T252G;V253G;V254G;P255G)", "sequence (P26368 141-342 S251G/T252G/V253G/V254G/P255G, one chain of several)": "as the sequence (P26368 141-342 V249G/V250G/V254G, one chain of several) above, with G109V, G110V, S111G, T112G, V113G, P115G counted along it", "assay": "fluorescence anisotropy; Anisotropy: 100 mM NaCl, 15 mM HEPES pH 6.8, 0.2 mM TCEP, 0.1 U/ul Superase-In, 30 nM RNA, 23 C; smFRET: 50 mM HEPES pH 7.4, 100 mM NaCl, room temperature"}, "U2AF65 1,2L NLALA": {"target": "U2AF65 1,2L NLALA (human, UniProt P26368 141-342, S251N;T252L;V253A;V254L;P255A)", "sequence (P26368 141-342 S251N/T252L/V253A/V254L/P255A, one chain of several)": "as the sequence (P26368 141-342 V249G/V250G/V254G, one chain of several) above, with G109V, G110V, S111N, T112L, V113A, G114L, P115A counted along it", "assay": "fluorescence anisotropy; Anisotropy: 100 mM NaCl, 15 mM HEPES pH 6.8, 0.2 mM TCEP, 0.1 U/ul Superase-In, 30 nM RNA, 23 C; smFRET: 50 mM HEPES pH 7.4, 100 mM NaCl, room temperature"}, "flU2AF65;U2AF35-UHM": {"target": "flU2AF65;U2AF35-UHM (human;human, UniProt P26368;Q01081 1-475;43-146, |)", "sequence (P26368 whole entry, one chain of several)": "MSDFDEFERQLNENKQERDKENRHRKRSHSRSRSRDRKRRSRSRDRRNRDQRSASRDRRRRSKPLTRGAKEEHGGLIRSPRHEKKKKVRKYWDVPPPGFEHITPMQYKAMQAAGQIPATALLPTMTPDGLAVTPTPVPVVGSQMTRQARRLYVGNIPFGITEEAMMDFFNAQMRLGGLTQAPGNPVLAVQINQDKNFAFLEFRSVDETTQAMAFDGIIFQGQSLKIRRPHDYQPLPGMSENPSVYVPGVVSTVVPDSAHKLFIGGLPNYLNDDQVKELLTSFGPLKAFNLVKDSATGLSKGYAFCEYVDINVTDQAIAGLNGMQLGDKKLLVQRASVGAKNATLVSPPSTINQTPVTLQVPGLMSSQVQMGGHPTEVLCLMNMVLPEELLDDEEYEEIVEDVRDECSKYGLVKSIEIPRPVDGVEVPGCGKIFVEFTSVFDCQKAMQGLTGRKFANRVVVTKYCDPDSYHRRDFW", "assay": "fluorescence anisotropy; Anisotropy: 100 mM NaCl, 15 mM HEPES pH 6.8, 0.2 mM TCEP, 0.1 U/ul Superase-In, 30 nM RNA, 23 C; smFRET: 50 mM HEPES pH 7.4, 100 mM NaCl, room temperature"}, "U2AF65 1,2L Q147A": {"target": "U2AF65 1,2L Q147A (human, UniProt P26368 141-342, Q147A)", "sequence (P26368 141-342 Q147A, one chain of several)": "as the sequence (P26368 141-342 V249G/V250G/V254G, one chain of several) above, with Q7A, G109V, G110V, G114V counted along it", "assay": "fluorescence anisotropy; Anisotropy: 100 mM NaCl, 15 mM HEPES pH 6.8, 0.2 mM TCEP, 0.1 U/ul Superase-In, 30 nM RNA, 23 C; smFRET: 50 mM HEPES pH 7.4, 100 mM NaCl, room temperature"}, "U2AF65 1,2L R227A": {"target": "U2AF65 1,2L R227A (human, UniProt P26368 141-342, R227A)", "sequence (P26368 141-342 R227A, one chain of several)": "as the sequence (P26368 141-342 V249G/V250G/V254G, one chain of several) above, with R87A, G109V, G110V, G114V counted along it", "assay": "fluorescence anisotropy; Anisotropy: 100 mM NaCl, 15 mM HEPES pH 6.8, 0.2 mM TCEP, 0.1 U/ul Superase-In, 30 nM RNA, 23 C; smFRET: 50 mM HEPES pH 7.4, 100 mM NaCl, room temperature"}, "U2AF65 1,2L V254P": {"target": "U2AF65 1,2L V254P (human, UniProt P26368 141-342, V254P)", "sequence (P26368 141-342 V254P, one chain of several)": "as the sequence (P26368 141-342 V249G/V250G/V254G, one chain of several) above, with G109V, G110V, G114P counted along it", "assay": "fluorescence anisotropy; Anisotropy: 100 mM NaCl, 15 mM HEPES pH 6.8, 0.2 mM TCEP, 0.1 U/ul Superase-In, 30 nM RNA, 23 C; smFRET: 50 mM HEPES pH 7.4, 100 mM NaCl, room temperature"}, "U2AF65 1,2L 3Mut": {"target": "U2AF65 1,2L 3Mut (human, UniProt P26368 141-342, Q147A;R227A;V254P)", "sequence (P26368 141-342 Q147A/R227A/V254P, one chain of several)": "as the sequence (P26368 141-342 V249G/V250G/V254G, one chain of several) above, with Q7A, R87A, G109V, G110V, G114P counted along it", "assay": "fluorescence anisotropy; Anisotropy: 100 mM NaCl, 15 mM HEPES pH 6.8, 0.2 mM TCEP, 0.1 U/ul Superase-In, 30 nM RNA, 23 C; smFRET: 50 mM HEPES pH 7.4, 100 mM NaCl, room temperature"}, "U2AF65 1,2L 12Gly": {"target": "U2AF65 1,2L 12Gly (human, UniProt P26368 141-342, M144G;L235G;M238G;V244G;V246G;V249G;V250G;S251G;T252G;V253G;V254G;P255G)", "sequence (P26368 141-342 M144G/L235G/M238G/V244G/V246G/V249G/V250G/S251G/T252G/V253G/V254G/P255G, one chain of several)": "as the sequence (P26368 141-342 V249G/V250G/V254G, one chain of several) above, with M4G, L95G, M98G, V104G, V106G, S111G, T112G, V113G, P115G counted along it", "assay": "fluorescence anisotropy; Anisotropy: 100 mM NaCl, 15 mM HEPES pH 6.8, 0.2 mM TCEP, 0.1 U/ul Superase-In, 30 nM RNA, 23 C; smFRET: 50 mM HEPES pH 7.4, 100 mM NaCl, room temperature"}, "dU2AF65 1,2": {"target": "dU2AF65 1,2 (human, UniProt P26368 148-336, del238-257)", "sequence (P26368 other isoform, or with tags, fused parts or gaps del238-257)": "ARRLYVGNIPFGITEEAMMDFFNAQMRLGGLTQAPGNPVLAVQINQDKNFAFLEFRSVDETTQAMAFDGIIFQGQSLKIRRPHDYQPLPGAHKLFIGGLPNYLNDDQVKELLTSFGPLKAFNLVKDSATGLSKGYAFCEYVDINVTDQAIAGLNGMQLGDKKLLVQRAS", "assay": "fluorescence anisotropy; Anisotropy: 100 mM NaCl, 15 mM HEPES pH 6.8, 0.2 mM TCEP, 0.1 U/ul Superase-In, 30 nM RNA, 23 C; smFRET: 50 mM HEPES pH 7.4, 100 mM NaCl, room temperature"}, "U2AF65 1,2L [1]": {"target": "T1, U2AF65 1,2L (human, UniProt P26368 141-342)", "T1 sequence (P26368 141-342, one chain of several)": "as the sequence (P26368 141-342 V249G/V250G/V254G, one chain of several) above, with G109V, G110V, G114V counted along it", "assay": "fluorescence anisotropy; Anisotropy: 100 mM NaCl, 15 mM HEPES pH 6.8, 0.2 mM TCEP, 0.1 U/ul Superase-In, 30 nM RNA, 23 C; smFRET: 50 mM HEPES pH 7.4, 100 mM NaCl, room temperature"}, "U2AF65 1,2L [2]": {"target": "T1, U2AF65 1,2L", "assay": "fluorescence anisotropy; Anisotropy: 100 mM NaCl, 15 mM HEPES pH 6.8, 0.2 mM TCEP, 0.1 U/ul Superase-In, 30 nM RNA, 23 C; smFRET: 50 mM HEPES pH 7.4, 100 mM NaCl, room temperature", "remark": "listed apart in the source"}, "[3]": {"target": "T2, full-length human U2AF^65 (residues 1–475) (human, UniProt P26368-1 1-475)", "T2 construct": "U2AF65 (U2AF2), human, full length, residues 1-475; also called flU2AF^65; U2AF2; source: expressed as a GST fusion protein, purified (GST cleavage, SP-HiTrap ion exchange)", "assay": "SEC; U2AF65 combined with slight excess U2AF35-UHM (ratio 1:1.2), dialysed overnight, heterodimer purified on Superdex-200 prep-grade in 150 mM NaCl, 25 mM HEPES pH 6.8, 0.2 mM TCEP", "conditions": "both partners purified"}, "U2AF65 1,2L FRET [4]": {"target": "T3, U2AF65 1,2L FRET (human, UniProt P26368 113-343, A181C;C305A;Q324C)", "T3 sequence (P26368 113-343 A181C/C305A/Q324C, one chain of several)": "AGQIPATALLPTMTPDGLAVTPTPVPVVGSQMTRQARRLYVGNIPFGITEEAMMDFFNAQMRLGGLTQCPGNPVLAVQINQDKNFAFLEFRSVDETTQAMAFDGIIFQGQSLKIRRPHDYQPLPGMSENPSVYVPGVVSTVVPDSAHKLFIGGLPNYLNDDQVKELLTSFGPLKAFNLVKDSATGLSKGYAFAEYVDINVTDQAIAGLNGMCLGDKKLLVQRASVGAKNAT", "assay": "smFRET; slide-tethered protein, 5 uM RNA; Anisotropy: 100 mM NaCl, 15 mM HEPES pH 6.8, 0.2 mM TCEP, 0.1 U/ul Superase-In, 30 nM RNA, 23 C; smFRET: 50 mM HEPES pH 7.4, 100 mM NaCl, room temperature"}, "U2AF65 1,2L FRET [5]": {"target": "T3, U2AF65 1,2L FRET", "assay": "smFRET; slide-tethered protein, 10 uM RNA; Anisotropy: 100 mM NaCl, 15 mM HEPES pH 6.8, 0.2 mM TCEP, 0.1 U/ul Superase-In, 30 nM RNA, 23 C; smFRET: 50 mM HEPES pH 7.4, 100 mM NaCl, room temperature"}},
  "data": [
    {"binder": "B1", "values": [
      {"measurement": "Kd", "setting": "U2AF65 1,2L 3Gly", "result": "47 ± 4", "unit": "nM"},
      {"measurement": "Kd", "setting": "dU2AF65 1,2L", "result": "123 ± 5", "unit": "nM"},
      {"measurement": "Kd", "setting": "U2AF65 1,2L 5Gly", "result": "61 ± 3", "unit": "nM"},
      {"measurement": "Kd", "setting": "U2AF65 1,2L NLALA", "result": "45 ± 3", "unit": "nM"},
      {"measurement": "Kd", "setting": "flU2AF65;U2AF35-UHM", "result": "30 ± 3", "unit": "nM"},
      {"measurement": "Kd", "setting": "U2AF65 1,2L Q147A", "result": "171 ± 21", "unit": "nM"},
      {"measurement": "Kd", "setting": "U2AF65 1,2L R227A", "result": "166 ± 2", "unit": "nM"},
      {"measurement": "Kd", "setting": "U2AF65 1,2L V254P", "result": "137 ± 10", "unit": "nM"},
      {"measurement": "Kd", "setting": "U2AF65 1,2L 3Mut", "result": "5630 ± 70", "unit": "nM"},
      {"measurement": "Kd", "setting": "U2AF65 1,2L 12Gly", "result": "88 ± 21", "unit": "nM"},
      {"measurement": "Kd", "setting": "dU2AF65 1,2", "result": "5000 ± 100", "unit": "nM"}
    ]},
    {"binder": "B2", "values": [
      {"measurement": "Kd", "setting": "U2AF65 1,2L [1]", "result": "31 ± 3", "unit": "nM"},
      {"measurement": "Kd", "setting": "flU2AF65;U2AF35-UHM", "result": "41 ± 2", "unit": "nM"}
    ]},
    {"binder": "B3", "values": [
      {"measurement": "Kd", "setting": "U2AF65 1,2L [1]", "result": "417 ± 10", "unit": "nM"},
      {"measurement": "Kd", "setting": "flU2AF65;U2AF35-UHM", "result": "414 ± 12", "unit": "nM"}
    ]},
    {"binder": "B4", "values": [
      {"measurement": "binding signal", "setting": "U2AF65 1,2L [2]", "result": "~5 fold lower affinity than AdML"}
    ]},
    {"binder": "B5", "values": [
      {"measurement": "binding result", "setting": "[3]", "result": "binds"}
    ]},
    {"binder": "B6", "values": [
      {"measurement": "binding result", "setting": "U2AF65 1,2L FRET [4]", "result": "binds"}
    ]},
    {"binder": "B7", "values": [
      {"measurement": "binding result", "setting": "U2AF65 1,2L FRET [5]", "result": "binds"}
    ]}
  ]
}
